Positions count from the first letter of the chain named.
B1: SR-AB34: cycle 3 light chain-optimized antibody, lineage SR-AB22; CDRs SEQ ID NO: 130-135 (antibody, V domains shown)
VH: QVQLVESGGGVVQPGRSLRLSCAASGFTFRSYVMHWVRQAPGKGLEWVAVISHEGSLKYYADSVKGRFTISRDNSKNTLYLQMNSLRAEDTAVYYCAVPRIAARRGGFGYWGQGTLVTVSS
VL: NFMLTQPHSVSESPGKTVTISCTRSSGNIDNNYVQWYQQRPGSSPTTVIYEDNQRPSGVPDRFSGSIDSSSNSASLTISGLKTEDEADYYCQSYDYDAQGVVFGGGTKLTVL
B2: SR-AB39: cycle 3 light chain-optimized antibody, lineage SR-AB22; CDRs SEQ ID NO: 148-153 (antibody, V domains shown)
VH: B1 VH
VL: B1 VL with N28L, N31D, N53A, Y96H, A98E
B3: SR-AB38: cycle 3 light chain-optimized antibody, lineage SR-AB22; CDRs SEQ ID NO: 142-147 (antibody, V domains shown)
VH: B1 VH
VL: B1 VL with N28S, N53F, Q54I, Y96D, A98L
B4: SR-AB37: cycle 3 light chain-optimized antibody, lineage SR-AB22; CDRs SEQ ID NO: 136-141 (antibody, V domains shown)
VH: B1 VH
VL: B1 VL with N28L, N31D, Y96S, A98L, G100R
B5: SR-AB60-HuFab (antibody, V domains shown)
VH: B1 VH with L57G, V98L, Y110T
VL: B1 VL with N31Y, Q54V, A98T
B6: SR-AB58-HuFab (antibody, V domains shown)
VH: B1 VH with L57G, V98L, Y110T
VL: B1 VL with N31Y, Q54V, Y96S, A98N, G100R
B7: SR-AB47-HuFab (antibody, V domains shown)
VH: B1 VH with L57G, V98R, Y110S
VL: B1 VL with N31Y, Q54V, A98N, G100A
B8: SR-AB61-HuFab (antibody, V domains shown)
VH: B1 VH with L57G, V98L, Y110T
VL: B1 VL with N31Y, Q54V, S93G, Y96W, A98T
B9: SR-AB46-HuFab (antibody, V domains shown)
VH: B1 VH with L57G, V98R, Y110S
VL: B1 VL with N31Y, Q54V, Y96S, A98N, G100R
B10: SR-AB55-HuFab (antibody, V domains shown)
VH: B1 VH with L57G, V98L, Y110S
VL: B1 VL with N31Y, Q54V, A98N, G100A
B11: SR-AB57-HuFab (antibody, V domains shown)
VH: B1 VH with L57G, V98L, Y110S
VL: B1 VL with N31Y, Q54V, S93G, Y96W, A98T
B12: SR-AB59-HuFab (antibody, V domains shown)
VH: B1 VH with L57G, V98L, Y110T
VL: B1 VL with N31Y, Q54V, A98N, G100A
B13: SR-AB56-HuFab (antibody, V domains shown)
VH: B1 VH with L57G, V98L, Y110S
VL: B1 VL with N31Y, Q54V, A98T
B14: LTBP-SR-AB42 HuFab (antibody, V domains shown)
VH: B1 VH with V98R
VL: B1 VL with A98T

target: T1, huLTBP1 proTGFβ1 (Homo sapiens, UniProt P01137+Q14766); assay: Octet (BLI) binding, IgG captured on AHC tips, antigen at 100 nM; conditions: Table 9; cycle 3; IgG1-agly; 1:1 fit
Protocol: (§1) Suitable methods for in vitro binding assays to determine the parameters of binding kinetics include Bio-layer Interferometry (BLI)-based assays such as Octet, and surface plasmon resonance (SPR)-based assays, such as Biacore systems (see, for example: biophysics.bioc.cam.ac.uk/wp-content/uploads/2011/02/Biacore_assay_handbook.pdf).
(§2) The affinity of SR-AB10, SR-AB2 and SR-AB13 was measured by Octet assay. The protocol used to measure the affinity of the antibodies to the complexes provided herein is summarized below.
(§3) • 96 well black polypropylene plates • AHC Octet tips (anti-human IgG Fc capture tips) (FortdBio) • 10× kinetics buffer (FortdBio) (diluted to 1× in PBS) • reiner Bio-One 96-Well Half Area Microplates (VWR cat #82050-044) Procedure:
(§4) Notes: The volume within each well during an Octet experiment is 100 uL.
(§5) A shake speed of 1000 rpm is used for all assay steps.
(§6) Pre-Wet Tips: • Biosensors must be pre-wet in 1× kinetics buffer (lx KB) for at least 10 minutes before starting an experiment. This can be done inside the Octet or on the bench.
(§7) Loading: • Tips are baselined in 1× KB for 1 minute before loading. • AHC tips are loaded with antibody at a concentration of 1 μg/mL (˜7 nM) for 3 minutes. A limit is set so that loading will stop when any one sensor reaches a response of 1 nanometer. • Tips are baselined in buffer for 1 minute after loading. The antibody should not dissociate from the tips during this time.
(§8) Antigen Association: • TGFβ1 in complex with various presentation molecules was associated to the immobilized antibodies at a single concentration of 100 nM in 1× KB.
(§9) Antibody Dissociation: • Dissociation in 1×KB was performed for 3 minutes.
(§10) Data Analysis using ForteBio Data analysis software 8.2: • Processing: align Y axis to last 5 seconds of baseline, perform inter-step correction with align to dissociation, and perform Savitzky-Golay filtering. • Analysis: 1:1 fitting model is utilized. Fitting is local and full. […] Results:
(§11) LTBP complex-specific antibodies from the first round of affinity maturation/optimization (SR-AB14, SR-AB16, SR-AB17, SR-AB18, SR-AB19) were selected for a second round of affinity maturation/optimization (i.e., CDR-H3 mutagenesis as described herein) and particular progeny antibodies (SR-AB20, SR-AB21, SR-AB22, SR-AB23, SR-AB24, SR-AB25, SR-AB26, SR-AB27, SR-AB28, and SR-AB29) were assessed for their ability to bind various proTGFβl constructs. Binding affinities of the optimized antibodies were measured by Octet against human LTBP1-proTGFβI, human LTBP3-proTGFb1, mouse LTBP1-proTGFβ1, mouse LTBP3-proTGFb1, and GARP-proTGFβl complexes, essentially as described in Example 6. In brief, test antibodies were immobilized to the surface of anti-human Fc capture biosensors (AHC) (ForteBio®) and binding was then tested against the various TGFβ1 complexes at a single concentration of 100 nM to assess binding affinities. The antigens were allowed to associate for 3 minutes followed by a 5-minute dissociation. Kinetics buffer (ForteBio®) was used throughout the experiment, and KD was determined using a 1:1 fitting model for each antibody antigen pair.
Binding affinities of the optimized antibodies were measured by Octet against human LTBP1-proTGFβ1, human LTBP3-proTGFβ1, mouse LTBP1-proTGFβ1, mouse LTBP3-proTGFβ1, and GARP-proTGFβ1 complexes, essentially as described in Example 6. In brief, test antibodies were immobilized to the surface of anti-human Fc capture biosensors (AHC) (ForteBio®) and binding was then tested against the various TGFβ1 complexes at a single concentration of 100 nM to assess binding affinities. The antigens were allowed to associate for 3 minutes followed by a 5-minute dissociation. Kinetics buffer (ForteBio®) was used throughout the experiment, and KD was determined using a 1:1 fitting model for each antibody antigen pair. […]

T1 sequence (P01137 30-390): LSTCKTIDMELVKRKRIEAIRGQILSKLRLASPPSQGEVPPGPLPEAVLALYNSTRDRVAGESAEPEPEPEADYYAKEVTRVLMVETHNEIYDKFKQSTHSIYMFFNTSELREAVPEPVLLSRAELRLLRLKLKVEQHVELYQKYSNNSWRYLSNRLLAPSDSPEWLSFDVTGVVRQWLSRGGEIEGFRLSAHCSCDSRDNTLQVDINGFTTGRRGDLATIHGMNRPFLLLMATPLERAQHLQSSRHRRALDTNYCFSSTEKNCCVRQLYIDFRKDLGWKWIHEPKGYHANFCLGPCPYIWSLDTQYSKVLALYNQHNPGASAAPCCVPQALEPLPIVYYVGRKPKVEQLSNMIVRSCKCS
T1 sequence (Q14766 347-1721 limits assumed): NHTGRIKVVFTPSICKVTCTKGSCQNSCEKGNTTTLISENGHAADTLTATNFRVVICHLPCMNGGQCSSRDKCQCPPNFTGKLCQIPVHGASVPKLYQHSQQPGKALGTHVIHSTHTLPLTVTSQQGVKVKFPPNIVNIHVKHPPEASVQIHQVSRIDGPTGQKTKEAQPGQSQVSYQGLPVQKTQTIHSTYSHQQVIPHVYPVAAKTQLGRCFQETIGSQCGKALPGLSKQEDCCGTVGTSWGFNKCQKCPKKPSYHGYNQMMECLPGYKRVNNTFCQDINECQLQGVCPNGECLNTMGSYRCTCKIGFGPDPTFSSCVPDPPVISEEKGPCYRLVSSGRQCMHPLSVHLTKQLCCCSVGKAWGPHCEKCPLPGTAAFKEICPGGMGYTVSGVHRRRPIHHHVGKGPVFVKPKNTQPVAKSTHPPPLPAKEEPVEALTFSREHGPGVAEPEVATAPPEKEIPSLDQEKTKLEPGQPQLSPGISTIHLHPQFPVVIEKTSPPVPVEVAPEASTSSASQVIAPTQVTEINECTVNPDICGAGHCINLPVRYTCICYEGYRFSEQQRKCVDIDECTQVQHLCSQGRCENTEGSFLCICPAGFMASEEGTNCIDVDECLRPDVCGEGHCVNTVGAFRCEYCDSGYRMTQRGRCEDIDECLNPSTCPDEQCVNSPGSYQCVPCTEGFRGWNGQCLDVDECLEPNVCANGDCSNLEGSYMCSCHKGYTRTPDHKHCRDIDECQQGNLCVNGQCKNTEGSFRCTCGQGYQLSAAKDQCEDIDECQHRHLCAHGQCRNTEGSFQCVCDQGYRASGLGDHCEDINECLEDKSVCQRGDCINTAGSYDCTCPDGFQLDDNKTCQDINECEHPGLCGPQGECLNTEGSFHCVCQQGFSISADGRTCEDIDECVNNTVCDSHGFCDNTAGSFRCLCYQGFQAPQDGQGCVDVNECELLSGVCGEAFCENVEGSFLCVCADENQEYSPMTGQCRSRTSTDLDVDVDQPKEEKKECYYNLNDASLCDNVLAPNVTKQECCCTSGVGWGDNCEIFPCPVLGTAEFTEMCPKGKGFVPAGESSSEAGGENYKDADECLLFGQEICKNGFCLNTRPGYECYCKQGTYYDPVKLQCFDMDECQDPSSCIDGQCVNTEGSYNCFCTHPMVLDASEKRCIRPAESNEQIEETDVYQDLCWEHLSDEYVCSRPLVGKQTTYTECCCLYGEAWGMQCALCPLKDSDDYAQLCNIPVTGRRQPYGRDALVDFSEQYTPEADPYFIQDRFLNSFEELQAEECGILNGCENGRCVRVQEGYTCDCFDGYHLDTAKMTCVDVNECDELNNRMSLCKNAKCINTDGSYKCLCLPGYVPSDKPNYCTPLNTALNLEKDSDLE

Hu LTBP1-proTGFβ1 Kon | Molecule
259000 M⁻¹ s⁻¹ | B1
292000 M⁻¹ s⁻¹ | B2
327000 M⁻¹ s⁻¹ | B3
360000 M⁻¹ s⁻¹ | B4

same assay, conditions: Table 9; cycle 3; IgG1-agly; 5-minute dissociation

Hu LTBP1-proTGFβ1 Koff | Molecule
6e-05 s⁻¹ | B1
6e-05 s⁻¹ | B2
0.000117 s⁻¹ | B3
0.000118 s⁻¹ | B4

target: huLTBP3 proTGFβ1 (Homo sapiens, UniProt P01137+Q9NS15); assay: as above; conditions: Table 9; cycle 3; IgG1-agly; 1:1 fit
Protocol: as §1, §2, §3, §4, §5, §6, §7, §8, §9, §10, §11
Binding affinities of the optimized antibodies were measured by Octet against human LTBP1-proTGFβ1, human LTBP3-proTGFβ1, mouse LTBP1-proTGFβ1, mouse LTBP3-proTGFβ1, and GARP-proTGFβ1 complexes, essentially as described in Example 6. In brief, test antibodies were immobilized to the surface of anti-human Fc capture biosensors (AHC) (ForteBio®) and binding was then tested against the various TGFβ1 complexes at a single concentration of 100 nM to assess binding affinities. The antigens were allowed to associate for 3 minutes followed by a 5-minute dissociation. Kinetics buffer (ForteBio®) was used throughout the experiment, and KD was determined using a 1:1 fitting model for each antibody antigen pair.

huLTBP3 proTGFβ1, sequence (P01137 30-390): as the sequence (P01137 30-390) above
huLTBP3 proTGFβ1, sequence (Q9NS15 44-1303): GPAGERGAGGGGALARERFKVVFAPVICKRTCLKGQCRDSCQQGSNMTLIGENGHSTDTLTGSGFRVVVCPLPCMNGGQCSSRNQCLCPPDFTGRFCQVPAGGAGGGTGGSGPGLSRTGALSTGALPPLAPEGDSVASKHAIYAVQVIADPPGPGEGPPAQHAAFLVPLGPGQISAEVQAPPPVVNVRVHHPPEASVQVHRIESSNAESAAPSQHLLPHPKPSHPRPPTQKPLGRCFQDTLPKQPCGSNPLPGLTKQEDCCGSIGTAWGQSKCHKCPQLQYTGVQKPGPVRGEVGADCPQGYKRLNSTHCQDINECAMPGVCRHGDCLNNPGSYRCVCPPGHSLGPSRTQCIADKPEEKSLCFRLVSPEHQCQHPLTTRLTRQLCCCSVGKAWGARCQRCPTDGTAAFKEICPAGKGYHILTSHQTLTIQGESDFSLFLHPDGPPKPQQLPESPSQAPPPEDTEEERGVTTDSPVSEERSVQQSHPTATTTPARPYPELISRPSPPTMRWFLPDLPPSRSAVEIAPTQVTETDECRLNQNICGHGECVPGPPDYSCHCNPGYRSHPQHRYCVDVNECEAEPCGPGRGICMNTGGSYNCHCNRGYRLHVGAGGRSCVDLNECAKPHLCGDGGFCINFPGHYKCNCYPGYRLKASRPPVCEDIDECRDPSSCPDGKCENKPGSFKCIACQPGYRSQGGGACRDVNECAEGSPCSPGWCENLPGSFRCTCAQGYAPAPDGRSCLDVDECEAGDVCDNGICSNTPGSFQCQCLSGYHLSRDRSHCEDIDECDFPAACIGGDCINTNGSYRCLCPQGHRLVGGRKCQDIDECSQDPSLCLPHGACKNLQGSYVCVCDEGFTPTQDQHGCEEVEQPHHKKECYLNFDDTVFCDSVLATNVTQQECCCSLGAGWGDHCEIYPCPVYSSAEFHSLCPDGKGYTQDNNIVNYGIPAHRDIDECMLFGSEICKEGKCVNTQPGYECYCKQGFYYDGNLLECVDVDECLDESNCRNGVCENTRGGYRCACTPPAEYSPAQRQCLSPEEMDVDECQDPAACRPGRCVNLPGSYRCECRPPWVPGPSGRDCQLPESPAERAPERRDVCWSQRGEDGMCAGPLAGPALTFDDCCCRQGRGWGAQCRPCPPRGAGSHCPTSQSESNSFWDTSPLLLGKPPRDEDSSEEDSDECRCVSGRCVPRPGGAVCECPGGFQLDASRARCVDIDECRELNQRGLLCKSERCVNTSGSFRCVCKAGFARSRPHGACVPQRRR

Hu LTBP3-proTGFβ1 Kon | Molecule
372000 M⁻¹ s⁻¹ | B1
441000 M⁻¹ s⁻¹ | B2
502000 M⁻¹ s⁻¹ | B3
545000 M⁻¹ s⁻¹ | B4

same assay, conditions: Table 9; cycle 3; IgG1-agly; 5-minute dissociation

Hu LTBP3-proTGFβ1 Koff | Molecule
6.68e-05 s⁻¹ | B1
6e-05 s⁻¹ | B2
7.26e-05 s⁻¹ | B3
7.58e-05 s⁻¹ | B4

target: T1, huLTBP1 proTGFβ1; assay: SPR (Biacore 8K) monovalent binding kinetics of Fabs, biotinylated antigen captured; set-up: biotin (complex biotinylated); conditions: Fab, huLTBP1 proTGFβ1; SR-AB42-HuFab average of five, SR-AB63-HuFab average of four replicate experiments
Protocol: A Biacore 8K system was employed to determine the monovalent binding affinity and the kinetic parameters for antigen binding of test antibodies. Association and dissociation kinetics of Fab fragments SR-AB42-HuFab, SR-AB63-HuFab and SR-AB43-HuFab to antigen complexes were measured, and resulting ka, kd and KD are provided below. Briefly, the binding kinetics were evaluated by surface plasmon resonance using Biacore 8K (GE Healthcare). Biotinylated capture antigens were immobilized to the chip (10 nM, ˜200 RU loading). A Biotin CAPture sensor chip was used to capture the biotinylated antigens. Fabs at 10, 5, 2.5, 1.25, and 0.6 nM concentrations were injected over the captured antigens. 0 nM was used as a reference. Affinities of LTBP antibodies to GARP and LRRC33 were confirmed using higher concentration of Fabs (100, 50, 25, 12.5, 6.25 nM). 0 nM was used as a reference. Multi-cycle kinetics was employed where each analyte concentration was injected in a separate cycle and the sensor chip surface was regenerated after each cycle. All the assays were carried out in freshly prepared 1×HBS-EP+buffer (10 mM HEPES, 150 mM NaCl, 3 mM EDTA, 0.05% Tween20, pH 7.4). Data were fit globally to a 1:1 binding model to obtain the kinetic parameters. The sensorgram for 0 nM analyte concentration was used as reference.
• 96 well plates—Greinerbio-one REF 650101 • Microplate Foils—GE Healthcare—CAT #28-9758-16 • Biotin CAPture Kit GE Healthcare product number 28920233 • Biacore running buffer—supplied as a 20× solution, diluted in Milli-Q water, TEKnova CAT #H8022 Method:
These experiments were performed using the Biacore 8K using the method “multi-cycle kinetics/affinity using Biotin CAPture kit.”
Data collection rate was set to 10 Hz and the Biotin CAPture step was performed for 300 seconds with a flow rate of 2 μL/minute. The Biotin CAPture reagent was used after a 1:5 dilution in 1× Biacore running buffer. Biotinylated ligands (the various complexes of TGFβ1) were utilized at a concentration of 10 nM and were immobilized to the sensor chip for 180 seconds with a flow rate of 10 μL/minute. The analytes, which are each of the Fabs, were tested at 10, 5, 2.5, 1.25, and 0.625 nM with a 0 nM control included. Analyte contact time was 120 seconds and the dissociation time was 900 seconds. The regeneration cycle utilized was 120 seconds with a flow rate of 10 μL/minute.
The evaluation method used was “multi-cycle affinity using capture” and a 1:1 binding model was used. […] Global fits were utilized for every KD determination.

ka | kd | Molecule
2.35e+06 M⁻¹ s⁻¹ | 0.00012 s⁻¹ | B5
3.11e+06 M⁻¹ s⁻¹ | 0.000162 s⁻¹ | B6
1.84e+06 M⁻¹ s⁻¹ | 0.000136 s⁻¹ | B7
1.17e+06 M⁻¹ s⁻¹ | 0.000155 s⁻¹ | B8
2.47e+06 M⁻¹ s⁻¹ | 0.00011 s⁻¹ | B9
862000 M⁻¹ s⁻¹ | 0.000113 s⁻¹ | B10
1.35e+06 M⁻¹ s⁻¹ | 0.000181 s⁻¹ | B11
2.55e+06 M⁻¹ s⁻¹ | 0.00013 s⁻¹ | B12
2.58e+06 M⁻¹ s⁻¹ | 0.000126 s⁻¹ | B13

same assay, conditions: Table 27, Hu LTBP1-ProTGFβ1

Kd | Molecule
0.38 nM | B14
